The data set can be described thus: yeast display, Sf9 membrane polyspecificity reagent, FACS + sequencing; frameworks hold sequencing errors. In short, it runs like this: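 Genes from sorted yeast were amplified by colony PCR, read by MiSeq 2 × 250 sequencing and filtered on CDR length. These cells carried a synthetic nanobody library in Saccharomyces cerevisiae BJ5465 and were sorted by FACS into low and high (top ~1%) gates on anti-HA and streptavidin fluorescence. Polyreactivity is labelled according to the gate of origin.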
Regarding “QVQLVESGGGLVQAGGRLRLSCAASGTFRRNAMGWYRQAPGKERELVAAIRWSGGITYYADSVKGRFTISRDNAKNTVYLQMNSLKPEDTADYYCSGQRYYGFGKTYYYWGQGTQVTVSS”, the “polyreactivity (PSR sort gate)” value is on record as “high polyreactivity”.

As for “QVQLVESGGGLVQAGGRLRLSCAASGYTFAGNAMGGYRPAPGKERELVAVITYSGGSTYYADSVKGRFTISRDNAKNTVYLQMNSLKPEDTAVYYCAADWQYSPRMDYWGQGTQVTVSS”, the “polyreactivity (PSR sort gate)” value was “low polyreactivity”. Consider “QVQLVESGGGLVQAGGRLRLSCAASGYTFGVYDMGWYRQAPGKERELVAAISGSTYYADSVKGRFTISRDNAKNTVYLQMNSLKPEDTAVYYCAAESYFFSPRTREKFDYWGQGTQVTVSS”, for which the “polyreactivity (PSR sort gate)” value is listed as “low polyreactivity”. As to “QVQLVESGGGLVQAGGRLRLSCAASVFTYKSYAMVWYRQAPGKERELVASIDKSTGNTFYADSVKGRFTISRDNAKNTVYLQMNSLKPEDTAVYYCAVDLLRSESHSKHIIYDYWGQGTQVTVSS”, the “polyreactivity (PSR sort gate)” value is listed as “low polyreactivity”. As to “QVQLVESGGGLVQAGGRLRLSCAASVNTFGANAMGWYRQAPGKESELVADITQSGGSTYYADSVKGRFTISRDNAKNTVYLQMNSLKPEDTALYYCNIVTRYYTPFEEYDYWGQGTQVTVSS”, the “polyreactivity (PSR sort gate)” value is “low polyreactivity”. In the case of “QVQLVESGGGLVQAGGRLRLSCAATGRTFGRNAMGWYRQAPGKERELVAAINGNGGRTYYADSVKGRFTISRDNAKNTVYLQMNSLKPEDTAVYYCAADLRRSDYDYWGQGTKVTVSS” it was “high polyreactivity”; in that of “QVQLVESGGGLVQAGGRLRLSCAATGRTFLPNAMGWYRQAPGKERELVASINGDGTTNYADSVKGRFTISRDNAKNTVYLQMNSLKPEDTAVYYCAADGYGGYYRGTYYTVYYWGQGTQVTLSS”, “low polyreactivity”. Regarding “QVQLVESGGGLVQAGGRLRLSCAAYGRIFDYYAMGWYRPAPGKEREFVAGITSTGGSTYYADSVKGRFTISRDNAMNTVYFQMNSLKPEDTPVYYCNVVKRLRHGYDYWGQGNQVTVSS”, the “polyreactivity (PSR sort gate)” value is given as “high polyreactivity”. As for “QVQLVESGGGLVQAGGRLRLSCAAYGRTFSDYTMGWYRQAPGKERELVAAISRRGGTTYYADSVKGRFTISRDNAKNTVYLQMNSLKPEDTAVYYCAAKRYRPKYEYDYWGQGTQVTVSS”, the entry is “high polyreactivity”; as for “QVQLVESGGGLVQAGGRLRLSCAAYGSIFMYYAMGWYRQSPVKERELVAAITRGGSTYYADSVKGRFTISRDNAKNTVYLQMNSLKPEDTAVYYCAATTFRSVGYDYWGQGTQVTVSS”, “low polyreactivity”; as for “QVQLVESGGGLVQAGGRLRLSCADSGRIFVKNTMGWYRQAPGKERELVAAISWSGGSTYYADSVKGRFTISRDNAKNTVYLQMNSLKPEDTAVYYCNARKRTKLSYPKFDYWGQGTQVTVSS”, “high polyreactivity”. For the sequence “QVQLVESGGGLVQAGGRLRLSCAHSGIIFFFYAMGWYRQAPGKERELVAAISDDGVSTDYADSVKGRFTISRDNAKNTVYLQMNSLKPEDTAVYYCAAKTERVYPWFSFGYWGQGTQVTVSS”, the “polyreactivity (PSR sort gate)” value is “low polyreactivity”.

As to “QVQLVESGGGLVQAGGRLRLSCAPSGSTFSTYAMGSYRQAPGNERELVAVITWRGGSTYYADSVKGRFTISRDNAKNTVYLQMNSLKPEDTAVYYCAAEGESPEYDYWGQGTQVTVSS”, the “polyreactivity (PSR sort gate)” value was “low polyreactivity”. As for “QVQLVESGGGLVQAGGRLRLSCDASGSIFYYYTMGWYRQAPGKEREFVAAITWRGASTYYADSVKGRFTISRDNAKNTVDLKMNSLKPEDTAVDYCNARWRVPRYRYDYWGQGTQVTVSS”, the entry is “high polyreactivity”; as for “QVQLVESGGGLVQAGGRLRLSCTASGRPLYNYTMGWYRQAPGKERELVATINFSGGSTYYADSVKGRFTISRDNAKNTVYLQMNSLKQEDTAVYYCTARGYHYAYKGAYLGDDYWGQGTQVTVSS”, “low polyreactivity”. In the case of “QVQLVESGGGLVQAGGRLRLSSAASGLTFPYYAMGWYRQAPGKERELVAVITTSTGTTYYADSVKGRFTISRDNAKNTVYLQMNSLKPEVTAVYYCATDTGAYWYSLYDYWGQGTQVTVSS” it was “low polyreactivity”; in that of “QVQLVESGGGLVQAGGRLRLSSAASGRIFASNAMGWYRQAPGKERELVARIDSGGITNYADSVKGRFTISRDNAKNTVYFQMNSLKPEDTGVYYCAKSVGWWSPPLGVYWVQGTQVTVSS”, “low polyreactivity”. “QVQLVESGGGLVQAGGRLRLSSAASGRTFYPNAMGWYRKAPLKERELVAAISGSGGSTYYADSVKGRFTISRDNAKNTVYLQMNSLKPEDTAVYYCAAYPEYLVGYRYGSWGQGTQVTVSS”: the “polyreactivity (PSR sort gate)” value is “high polyreactivity”. As for “QVQLVESGGGLVQAGGRLRLTCAASASIFYYYTMGWYRQAPGKERELVAAINSIGGRTYYADSVKGRFTISRDNAKNTVYLQMNSLKQEDNAVYYCNAVLDPGDQDDYDYWGQGTQVTLSS”, the entry is “low polyreactivity”; as for “QVQLVESGGGLVQAGGRLRLTCAASGYIFDVNAMGWYRHAPGKERELVAAISQRGTRTYYADSVKGRFTISRDNAKNSVYLQMNSLKPEDTAVYFCNRGGWRQYDSWVQGTQVTVSS”, “high polyreactivity”. As for “QVQLVESGGGLVQAGGRLSLSCAASGSIFNQYAMGWHRQAPGKERELVAAISSDGGRTYYADSVKGRFTISRDNAKITVYLQMNSLKPEDTAVYYCNADFPAYGLECDVYWGQGTQVTVSS”, the entry is “low polyreactivity”.

On to “QVQLVESGGGLVQAGGRRRLICAASGSTFVRNAMGWYRQAPGKERELVATISSGGGTKYADSVKGRFTISRDNAKNTVYLQMNSLKPEDTAVYYCAARYRSYAVRLRGYDYWGQGTQVTVSS”, for which the “polyreactivity (PSR sort gate)” value is listed as “high polyreactivity”. Take “QVQLVESGGGLVQAGGSGRLSCAASGRTTRDYAMGWYRQAPGKERELVAAIRWRGVSTYYADSVKGRFTISRDNAKNTVDVQMNSLKPEDTAVYYCAKRESVSTSAGKGAMDSWGQGTQVTVSS”: the “polyreactivity (PSR sort gate)” value is listed as “high polyreactivity”. “QVQLVESGGGLVQAGGSGRLSCAASGSILPSYAMGWYRQAPGKERELVAAISRRGGSTYYADSVKGRFSISRDNAKNTVYLQMNSLKPEDTAVYYCAAGSYSGYDYWGQGTQVTVSS”: the “polyreactivity (PSR sort gate)” value is “low polyreactivity”. As for “QVQLVESGGGLVQAGGSHRFRCAASGSTIVSDAMGLYRHAPGKERELDATISWRGGSTYYADSVKGRFTISRDNAKNTVYLQMNSLKPEDTAVYDCAADLWHSQYYYGYEYWGQGTQVNVSS”, the entry is “low polyreactivity”; as for “QVQLVESGGGLVQAGGSHRLSCAASGFIFGRNAMGWYRQATGKDRELVDANTRSGGSTYYADSVKGRFTISRDNAKNTVYLQLYSLKPEDTAVYYCAKGLFTWGVFRVGIRDDYWGQGTQVTVSS”, “high polyreactivity”; as for “QVQLVESGGGLVQAGGSHRLSCAASGFTFTYYAMGWYRQAPGKERELVADITSGGGTNYADSVKGRFTISRDNAKNTVFLQMNSLKPEDTAVYYCAADAYHQGMDYWGQGTQVTVSS”, “low polyreactivity”. In the case of “QVQLVESGGGLVQAGGSHRLSCAASGGTFSNNAMGWYRQAPGKERELVAAISNSGGRTYYADSVKGRFTISRDNAKNTVYLQMNSLKPEDTAVYYCNARYRLMDYWGQGTQVTVSL” it was “high polyreactivity”; in that of “QVQLVESGGGLVQAGGSHRLSCAASGITFTVNSMGWYRQAPGKERELVAAISNDGSTYYADSVKGRFTISRDNAKNTVYLQMNSLKPEDTAVYYCAADTWDDFGPYGYDYWGQGTHVTVSS”, “low polyreactivity”; in that of “QVQLVESGGGLVQAGGSHRLSCAASGLIFPYNAMGWYRQAPGKERELVAAIDSGVTTYYADSVKGRFTISRDNAKNTVYLQMNSLKPEDTAVYYCAADGLPGPEGDSWGQGTQVTVSS”, “low polyreactivity”.

As for “QVQLVESGGGLVQAGGSHRLSCAASGLTFFTYAMGWYRQAPGKERELVATISSRGGRTYYADSVKGRFTISRDNAKNTVYLQMNSLKPEDTAVYYCAARGVWKSKHNYWGQGTQVTVSS”, the “polyreactivity (PSR sort gate)” value is on record as “high polyreactivity”. “QVQLVESGGGLVQAGGSHRLSCAASGRIFDKNAMGWYRQAPGKERELVAAINRSGGRTYYADSVKGRFTISRDNAKNTVYLQMNSLKPEDTAVYYCAADTQGSRYDYWGQGTQVTVSS”: the “polyreactivity (PSR sort gate)” value was “high polyreactivity”. On to “QVQLVESGGGLVQAGGSHRLSCAASGRIFTSNTMGWYRQAPGKERELVAAITSSGGSMYYADSVKGRFTISRDNAKNTVYLQMNSLIPEDTAVYYCAADTIGYHYWYDYWGQGTQVTVSS”, for which the “polyreactivity (PSR sort gate)” value is “low polyreactivity”.

Consider “QVQLVESGGGLVQAGGSHRLSCAASGRIYYYTMGWYRQAPGKERELVATITSSGSSTYYADSVKGRFTISRDNAKNTFYLQLNRLKPEDTAVYYCAAAGGGVRKVWGGSRYGYWGQGTQVTVSS”, for which the “polyreactivity (PSR sort gate)” value is recorded as “high polyreactivity”. As for “QVQLVESGGGLVQAGGSHRLSCAASGRTFCKYAMGWYRQAPGKERELVAAITAGGGTKYADSVKGRFTISRDNAKNTVYLQMNSLKPEDTAVYYCAAASGSRRHGYWGQGTQVTVSS”, the entry is “high polyreactivity”. As for “QVQLVESGGGLVQAGGSHRLSCAASGRTFVVYAMGWYRQAPGKERELVARIRWRDVSTYYADSVKGRFTISRDNAKTTVYLQMNSLKPEDTAVYYCAARSYTGGGRLYYWGQGTQVTVSS”, the entry is “high polyreactivity”. As for “QVQLVESGGGLVQAGGSHRLSCAASGSIFFSNARGWYRQAPGNERELFAAITWTGGSTYYADSVKGRFTISRDNAKNTVYLQMNSLKPEDTAVYYCNAAHQRDWYYAIYHLYYSPYYYWGQGSQVTVSS”, the entry is “low polyreactivity”. For the sequence “QVQLVESGGGLVQAGGSHRLSCAASGSIFRQNAMGWYRQAPGKERELVAAITRGGGGTTYYADSVKGRFTISRDNAKNTVYLQMNSLKPEDTAVYYCAKAYEVRVEVDYWGQGTQVTVSS”, the “polyreactivity (PSR sort gate)” value is on record as “low polyreactivity”. As for “QVQLVESGGGLVQAGGSHRLSCAASGSIFYFNAMGWYRQAPGKEREFVAGITTSGGSTYYADSVKGRFTISRDNAKNTVYLQMNSLKPEDTAVYYCNIVWVYAVTPSSWYKYGSWGQGTQVTVSS”, the entry is “low polyreactivity”; as for “QVQLVESGGGLVQAGGSHRLSCAASGSTFDTYPMGWYRQEPGKERELVAAISRSGTSTYYADSVKGRFTISRDNAKNTVYLQMKSLKPEDTAVYYCAAYGPRVNGEIGREYYYWGQGTQVTVSS”, “low polyreactivity”; as for “QVQLVESGGGLVQAGGSHRLSCAASGSTFFRNAKGWYSQAPGKEREWVAANSYSGDSTYYADSVKGRFTISRDNEKNTVSLQMNRLKPDDTAVYYSNAVLFRYRYNYWGQGTQVNVSS”, “high polyreactivity”.

For the origin of these results see the nanobody polyreactivity screen of Harvey et al. (2022).
